According to patent US11649285B2:

Experiments:
[1] = target: human VISTA, native (on anti-CD3-activated human T cells and PBMCs) (human (homo sapiens))
[2] = target: human VISTA, native (on anti-CD3-activated human T cells and PBMCs) (human (homo sapiens)); remark: listed apart in the source

B1: Recombinant human VSIG3 Fc Chimera (Fc fusion)
chain: LEVSESPGSIQVARGQTAVLPCTFTTSAALINLNVIWMVTPLSNANQPEQVILYQGGQMFDGAPRFHGRVGFTGTMPATNVSIFINNTQLSDTGTYQCLVNNLPDIGGRNIGVTGLTVLVPPSAPHCQIQGSQDIGSDVILLCSSEEGIPRPTYLWEKLDNTLKLPPTATQDQVQGTVTIRNISALSSGLYQCVASNAIGTSTCLLDLQVISPQPRNIGLIAG
ED50 of inhibition of MIP-1 alpha secretion, anti-CD3-activated human PBMCs (Quantikine ELISA) [1]: 0.5 µg/mL | ED50 of inhibition of Rantes secretion, anti-CD3-activated human PBMCs (Quantikine ELISA) [1]: 0.5 µg/mL | concentration at which inhibition of CXCL11 secretion occurred, anti-CD3-activated human PBMCs (Quantikine ELISA) [1]: 2 µg/mL | concentration at which inhibition of IL-17 secretion occurred, anti-CD3-activated human PBMCs (Quantikine ELISA) [1]: 10 µg/mL | division of CFSE-labeled human CD3+ T cells with plate-bound anti-CD3 and rhVSIG-3 10 µg/mL, flow cytometry (% CD3+ T cells dividing (72 hours)) [2]: < 25
